Values of other authors as cited in paper PMC2880562.

Target: Arginine repressor ArgR (trimer) (Escherichia coli) (UniProt P0A6D0)
Assay: analytical ultracentrifugation

Kd: < 2.5 nM
Substance: Arginine repressor ArgR (trimer) (from UniProt P0A6D0)
